Consider five molecules from patent US20150182631A1, “SYSTEM FOR […]-BASED ACTIVE INGREDIENTS” (Centre National De La Recherche Scientifique-CNRS, priority 2012, published 2015).

As usually defined, the Kd is the concentration at which binding is half-saturated. The term koff denotes the rate constant with which the complex falls apart. A lower koff goes with a long-lived complex.

Data set [1] deals with the molecule itself. The experiment in a line: isothermal titration calorimetry, dilution of concentrated XCL into buffer; tetramer-dimer equilibrium; tetramer-dimer equilibrium of XCL by dilution ITC. Here is the method:
In order to accurately measure the equilibrium constant of tetramerisation and also determine the thermodynamics of the tetramerisation of XCL, the inventors used isothermal titration calorimetry (Burrows et al., (1994) Lovatt et al., (1996) Barranco-Medina et al. (2009)). In this method, a concentrated solution of XCL was diluted in a buffer, and the dissociation heat of the dimers (or of the monomers) was measured. The quantity of heat released for each injection is governed by the enthalpy exchange from the tetramer to the dimer and the tetramer-dimer equilibrium constant.
On the technique in general: Isothermal titration calorimetry measures the heat released or taken up as one component is titrated into another.

Data set [2] concerns the molecule itself. The experiment in a line: size exclusion chromatography at pH 7.2 and pH 4.4; tetramer kept. The method, then: The behaviour of the oxidised mutant A38C was also analysed. […] When the pH is decreased to 4.4, no modification in the elution volume is observed. The addition of the disulphide bridge therefore increases the stability of the protein assembly. The adding of 0.003% SDS leads to the dissociation of the tetramer into dimers, constituted of monomers bonded together by the disulphide bridge.
For orientation: Size exclusion chromatography separates by hydrodynamic size, large species first.

The nature of data set [3]: Balanced FRET, exchange of monomers. Particulars: 1 h incubation, pH 8.5. It counts as physicochemical. Here is the method: Fluorescence energy transfer was used to reveal the exchange of the XCL monomers. The exchange reaction is initiated by mixing the same volume of XCL-RITC (1 μM or only the buffer as a reference) and of XCL-FITC (1 μM) at 25° C. in 50 mM of phosphate buffer, 100 mM NaCl, pH 8.5. After one hour of incubation, the emission spectrum of the sample excited at 490 nm is recorded by spectrofluorimetry (Photon Technology International QM-4). The same experiments were carried out with A38C-RITC and A38C-FITC.
The oligomerization balance of the XCL protein was characterised by the measurement of the appearance of resonance energy transfer of the Förster type (FRET) between two populations of XCL labelled separately either with FITC (Fluorescein IsoThioCyanate) or with RITC (Rhodamine IsoThioCyanate).
In this same figure, is also shown the spectrum obtained by mixing the labelled protein, either by the donor or by the acceptor (dotted line curve). This spectrum was deconvoluted, which gives the spectra shown as a dotted line in FIG. 2A.
For the purposes of comparison, the same experiment was carried out with the variant A38C. This variant is covalently bonded by two additional disulphide bridges. A perfectly superimposable spectrum was obtained after mixing donor and acceptor labelled proteins and incubation of this mixture for 1 h at ambient temperature (dotted lines of FIG. 3B).

Data set [4] is described as follows: Confinement of fluorescein in the lectin cavity. The note with it: 4 days at ambient temperature, free fluorescein eliminated again. Here is the method: The confinement experiments are carried out by incubating the wild-type protein (XCL) or the mutants (A38C) with the molecule to be tested. In order to carry out the control experiments with the mutant A38C, an oxidation step is carried out in the presence of GSSG in a phosphate buffer 50 mM, 100 mM NaCl, pH 7.2, OVN. The GSSG is then eliminated on a PD-10 sephadex G-25M column (GE Healthcare) pre-balanced in a phosphate buffer 50 mM, 100 mM NaCl, pH 8.5. The eluate is concentred at 1 ml on Vivaspin 15R 30,000 MWCO (Sartorius stedim). A batch of A38C is reduced to TCEP (under argon) with adding of NaOH for a final pH of 8.5. […] The quantity of fluorescein is measured by using an absorption coefficient of e511 nm=75,000 cm^−1 M^−1. The concentrations of XCL and of A38C after the confinement are calculated with e278 nm=[…]. The percentage of confinement is calculated by forming the ratio of the fluorescein/protein concentrations.
In the case with XCL, the inventors incubated the protein (15 μM) with fluorescein (10 mM) and then separated the protein from the non-confined molecules of fluorescein by two successive gel filtration columns. Beforehand, the inventors verified that if these two columns on the fluorescein solution are carried out at 10 mM, no residual free fluorescein is detected. […]

A short description of data set [5]: Chemical dissociation by size exclusion chromatography at acidic pH. It counts as physicochemical. Here is the method:
The size exclusion chromatography experiments were carried out on a GE-Healthcare Superose 12 PC 3.2/30 column. The columns are pre-balanced in the buffer tested, namely phosphate buffer 50 mM, 100 mM NaCl, pH7.2 or pH 4.4 in the absence or in the presence of 0.003% of SDS. The flow rate is 0.5 mL/min. The BSA and the RNase A are used as a size marker.
The inventors studied the behaviour of XCL in denaturing chemical conditions close to those encountered in the lysosomes. The analysis was carried out via exclusion chromatography with an acidic pH (pH 4.4). It appears that the elution peak of XCL in these denaturing conditions is displaced to greater elution volumes showing the appearance of a smaller size. When 0.003% SDS is added, the elution peak is displaced to the elution volume of the RNAse A which has a molecular weight close to the XCL monomer.
The behaviour of the oxidised mutant A38C was also analysed. […] The addition of the disulphide bridge therefore increases the stability of the protein assembly.

Data set [6] in a line: SDS-PAGE of tetramer and disulphide bridge stability. It counts as physicochemical. Particulars: reduced glutathione 10 mM in oxidation buffer. Here is the method: The clone A38C was obtained by directed mutagenesis by using the XCL plasmid as a matrix and the protein produced and purified by using the same protocol as that used to produce XCL (Trigueros et al. (2003)). A yield of 25 mg of purified protein per litre of culture was obtained. The last part of the protocol consisted in a step of oxidation for 12 hours in the presence of 10 mM of oxidised glutathione. This step is required in order to produce disulphide bridges between the monomers. The forming of these covalent bonds was verified by SDS-PAGE. Two SDS-PAGE were prepared. Beta-mercaptoethanol was added to the samples in the first gel while beta-mercaptoethanol was not added to the second gel. When XCL is heated to 95° C. 5 min before the deposit, a single band is observed with a molecular weight slightly greater than 20 kDa on the two gels. This band corresponds to the species in monomer form.
A variant T12C was produced in the same manner as A38C by directed mutagenesis by using the XCL plasmid as a matrix. By using the same protocol, 10 mg of protein per litre of culture were produced. The oxidation rate of the variant T12C was sought by using the same method by SDS-PAGE as for A38C. These rates were compared with those obtained with the variant A38C. Several oxidative conditions were tested with different concentrations of reduced glutathione. […]

In data set [7] the target is T1, XCL labelled with RITC (Xerocomus chrysenteron, RITC on surface epsilon-amino groups, 0.9 mol of RITC per mol of XCL).
T1 construct: FRET acceptor population of XCL; also called RITC-XCL; XCL-RITC
T1 chain: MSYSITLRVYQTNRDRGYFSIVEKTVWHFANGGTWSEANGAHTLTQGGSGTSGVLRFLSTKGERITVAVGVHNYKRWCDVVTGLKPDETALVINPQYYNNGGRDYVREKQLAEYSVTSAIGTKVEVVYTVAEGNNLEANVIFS
Put plainly: FRET kinetics at 580 nm after mixing XCL-FITC and XCL-RITC, double exponential fit; slow dissociation of the tetramer (proportion a=0.39); k1, slower of the two dissociation pathways of the tetramer. Here is the method:
(§1) The speed of the exchange of subunits was measured by the same technique. The reaction is initiated by mixing the same volume of XCL-RITC (1 μM) and of XCL-FITC (1 μM) at 25° C. in 50 mM of phosphate buffer, 100 mM NaCl, pH 8.5. The excitation is carried out at 468 nm and the fluorescence emission at 580 nm is recorded every 0.5 seconds. The fluorescence intensity is normalised by using the equation: […]

Data set [8] deals with T1, XCL labelled with RITC. The experiment in a line: FRET kinetics at 580 nm after mixing XCL-FITC and XCL-RITC, double exponential fit; fast dissociation of the tetramer; k2, faster of the two dissociation pathways of the tetramer. Here is the method: as §1

B1: Xerocomus chrysenteron lectin (XCL) (other)
chain: MSYSITLRVYQTNRDRGYFSIVEKTVWHFANGGTWSEANGAHTLTQGGSGTSGVLRFLSTKGERITVAVGVHNYKRWCDVVTGLKPDETALVINPQYYNNGGRDYVREKQLAEYSVTSAIGTKVEVVYTVAEGNNLEANVIFS
notes: Recombinant fungal lectin, a homotetramer in solution; also called wild-type protein; native XCL protein
With B1, the Kd in data set [1] was 4.5 µM.

B2: XCL variant A38C, oxidised (other)
chain: MSYSITLRVYQTNRDRGYFSIVEKTVWHFANGGTWSECNGAHTLTQGGSGTSGVLRFLSTKGERITVAVGVHNYKRWCDVVTGLKPDETALVINPQYYNNGGRDYVREKQLAEYSVTSAIGTKVEVVYTVAEGNNLEANVIFS
modifications: interchain disulphide bridge between Cys 38 of opposite monomers (oxidised with GSSG)
notes: Homotetramer with two added disulphide bridges that link monomers diagonally; In the FRET experiment it was labelled with FITC or RITC; also called mutant A38C; oxidised mutant A38C
On to B2, for which the binding result in data set [2] is “binds”.

B3: A38C: XCL variant with alanine 38 replaced by cysteine, SEQ ID NO: 2; A38R reduced before confinement, A38NR not reduced, A38Cox oxidised (protein)
chain: MSYSITLRVYQTNRDRGYFSIVEKTVWHFANGGTWSECNGAHTLTQGGSGTSGVLRFLSTKGERITVAVGVHNYKRWCDVVTGLKPDETALVINPQYYNNGGRDYVREKQLAEYSVTSAIGTKVEVVYTVAEGNNLEANVIFS
modifications: Variant A38C
notes: A38R reduced before confinement, A38NR not reduced, A38Cox oxidised
For B3, the “FRET between FITC- and RITC-labelled protein after mixing (monomer redistribution)” value in data set [3] was “no FRET is observed”. In addition, the “confinement rate after incubation” value in data set [4] is recorded as “remained unchanged”. The “oligomeric state by elution volume at pH 4.4 with SDS” value in data set [5] (pH 4.4, 0.003% SDS) is given as “dissociation of the tetramer into dimers”. In data set [5] (pH 4.4, no SDS), the “oligomeric state by elution volume at pH 4.4” value is “no modification in the elution volume is observed”.

B4: T12C: XCL variant with threonine 12 replaced by cysteine, SEQ ID NO: 3 (protein)
chain: MSYSITLRVYQCNRDRGYFSIVEKTVWHFANGGTWSEANGAHTLTQGGSGTSGVLRFLSTKGERITVAVGVHNYKRWCDVVTGLKPDETALVINPQYYNNGGRDYVREKQLAEYSVTSAIGTKVEVVYTVAEGNNLEANVIFS
modifications: Variant T12C
B4: the “stability of the additional disulphide bridge” value in data set [6] was “less stable than the disulphide bridge of A38C”.

B5: XCL labelled with FITC (other)
chain: MSYSITLRVYQTNRDRGYFSIVEKTVWHFANGGTWSEANGAHTLTQGGSGTSGVLRFLSTKGERITVAVGVHNYKRWCDVVTGLKPDETALVINPQYYNNGGRDYVREKQLAEYSVTSAIGTKVEVVYTVAEGNNLEANVIFS
modifications: FITC on surface epsilon-amino groups, 4 mol of FITC per mol of XCL
notes: FRET donor population of XCL; also called FITC-XCL; XCL-FITC
With B5, the koff stood at 0.012 s⁻¹ with XCL labelled with RITC [7] and 0.042 s⁻¹ in the data set with XCL labelled with RITC [8].
